Substitutions are numbered along the chain they refer to.
Assays:
[1] = biological target: T1, S-ECD protein of SARS-CoV-2 Omicron (B.1.1.529) (SARS-CoV-2 B.1.1.529 (Omicron), strain); assay: ELISA
[2] = biological target: T1, S-ECD protein of SARS-CoV-2 Omicron …; assay: cell-based or functional assay
[3] = biological target: SARS-CoV-2 Spike protein (ECD, His & FLAG tag), Wuhan-Hu-1 (wild-type) (SARS-CoV-2 Wuhan-Hu-1, UniProt P0DTC2); assay: ELISA

B1: XG005a (antibody, V domains shown)
VH: QITLKESGPTLVKPTQTLTLTCTFSGFSLSTSGVGVGWIRQPPGKALEWLALIYWDNDKRYSPSLKSRLTITMDTSKNQVVLTMTNMDPVDTATYYCARLPSTDTIFDYWGQGALVTVSS
VL: QSALTQPASVSGSPGQSITVSCTGTSSDVGDYNYVSWYQQHPGKAPKLMIYDVSKRPSGVSNRFSGSKSGKTASLTISGLQAEDEADYYCSSYTSTSVVFGGGTKLTVL
For B1, the “ELISA AUC” value [1] was ~26 and the “IC50 of neutralization of Omicron pseudovirus, Huh-7 cells, luciferase” value [2] was > 10 µg/mL.

B2: XG005c (antibody, V domains shown)
VH: B1 VH with N57D, M73K, L82V, S102A, Y109S, A114T
VL: B1 VL with V20I, D31A, K71Y, A82P, Y89F, S95T
For B2, the “ELISA AUC” value [1] was ~30 and the “IC50 of neutralization of Omicron pseudovirus, Huh-7 cells, luciferase” value [2] was 2 µg/mL.

B3: XG005 (antibody, V domains shown)
VH: QVTLRESGPTLVKPKQTLTLTCTFSGFSLSTPGGGVGWIRQPPGKALEWLALIYWDDDKRYSPSLKSSLTITKDTSKNQVVLTMTNMDPVDTATYYCARLTAADTIFDCWGQGTLVTVSS
VL: B1 VL with Q16L, V20I, G24A, D31A, K44Q, G70A, K71N, S95T
With B3 the “ELISA AUC” value [1] was ~30 and the binding result [3] was “binds”.
